Assay results as given in the supplement of paper PMC10065799, “High-throughput profiling of sequence recognition by tyrosine kinases and SH2 domains using bacterial peptide display” (eLife, 2023).

Columns and labels:
AncSZ = assay: phosphorylation enrichment, bacterial display (enrichment ratio); higher = better substrate or ligand; peptides without Tyr show the background
EPHB1 = EPHB1 (UniProt P54762); assay: as above
EPHB2 = EPHB2 (UniProt P29323); assay: as above
FGFR1 = FGFR1 (UniProt P11362); assay: as above
Sequence of FGFR1 (P11362 whole entry, looked up): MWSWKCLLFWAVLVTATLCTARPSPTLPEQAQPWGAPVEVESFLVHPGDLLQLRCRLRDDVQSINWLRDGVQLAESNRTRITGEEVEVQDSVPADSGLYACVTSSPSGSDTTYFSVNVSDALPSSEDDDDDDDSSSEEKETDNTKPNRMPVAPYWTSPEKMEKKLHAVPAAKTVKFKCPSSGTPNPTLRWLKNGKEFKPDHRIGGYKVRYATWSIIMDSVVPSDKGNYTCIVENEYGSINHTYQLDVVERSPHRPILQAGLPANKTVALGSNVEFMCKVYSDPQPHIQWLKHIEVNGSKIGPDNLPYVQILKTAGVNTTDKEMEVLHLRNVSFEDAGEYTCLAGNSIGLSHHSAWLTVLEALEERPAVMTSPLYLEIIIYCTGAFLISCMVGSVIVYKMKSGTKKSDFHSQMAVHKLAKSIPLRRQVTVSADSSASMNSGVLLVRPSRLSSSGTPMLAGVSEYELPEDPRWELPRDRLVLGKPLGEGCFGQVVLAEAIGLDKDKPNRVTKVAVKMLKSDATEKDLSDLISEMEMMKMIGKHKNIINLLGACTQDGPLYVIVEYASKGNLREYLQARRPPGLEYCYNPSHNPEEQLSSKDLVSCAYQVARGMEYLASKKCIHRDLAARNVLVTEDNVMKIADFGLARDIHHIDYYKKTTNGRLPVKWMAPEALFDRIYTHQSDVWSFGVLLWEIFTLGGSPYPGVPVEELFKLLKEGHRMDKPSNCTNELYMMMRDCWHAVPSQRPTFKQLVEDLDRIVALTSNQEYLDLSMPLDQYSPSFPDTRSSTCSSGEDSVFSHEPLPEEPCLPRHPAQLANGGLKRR

FGFR3 = FGFR3 (UniProt P22607); assay: as above
Fer (mouse) = assay: as above
Fes = Fes (UniProt P07332); assay: as above
Sequence of Fes (P07332 whole entry, looked up): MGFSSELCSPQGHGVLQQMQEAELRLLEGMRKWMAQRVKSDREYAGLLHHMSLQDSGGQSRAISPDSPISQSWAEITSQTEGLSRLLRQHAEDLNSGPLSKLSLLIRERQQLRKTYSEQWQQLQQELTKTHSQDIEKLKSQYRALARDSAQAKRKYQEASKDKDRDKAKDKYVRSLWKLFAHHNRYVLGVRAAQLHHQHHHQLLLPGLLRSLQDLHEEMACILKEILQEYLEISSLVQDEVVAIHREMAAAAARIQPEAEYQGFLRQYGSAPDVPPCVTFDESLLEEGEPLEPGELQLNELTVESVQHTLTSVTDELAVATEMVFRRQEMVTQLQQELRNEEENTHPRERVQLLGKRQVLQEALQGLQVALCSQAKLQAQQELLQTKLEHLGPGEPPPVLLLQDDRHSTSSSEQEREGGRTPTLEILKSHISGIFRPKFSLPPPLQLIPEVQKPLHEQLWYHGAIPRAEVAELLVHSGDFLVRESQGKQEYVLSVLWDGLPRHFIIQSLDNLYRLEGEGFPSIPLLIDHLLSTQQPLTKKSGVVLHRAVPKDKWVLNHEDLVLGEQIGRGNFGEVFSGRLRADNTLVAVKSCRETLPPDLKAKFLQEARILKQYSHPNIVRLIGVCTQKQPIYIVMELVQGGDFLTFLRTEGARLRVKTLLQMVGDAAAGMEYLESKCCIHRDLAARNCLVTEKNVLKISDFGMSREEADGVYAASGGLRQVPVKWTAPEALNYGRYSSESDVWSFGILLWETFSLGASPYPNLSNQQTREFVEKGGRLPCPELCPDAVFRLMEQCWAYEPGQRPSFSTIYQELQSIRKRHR

Fyn = Fyn (UniProt P06241); assay: as above
Sequence of Fyn (P06241 whole entry, looked up): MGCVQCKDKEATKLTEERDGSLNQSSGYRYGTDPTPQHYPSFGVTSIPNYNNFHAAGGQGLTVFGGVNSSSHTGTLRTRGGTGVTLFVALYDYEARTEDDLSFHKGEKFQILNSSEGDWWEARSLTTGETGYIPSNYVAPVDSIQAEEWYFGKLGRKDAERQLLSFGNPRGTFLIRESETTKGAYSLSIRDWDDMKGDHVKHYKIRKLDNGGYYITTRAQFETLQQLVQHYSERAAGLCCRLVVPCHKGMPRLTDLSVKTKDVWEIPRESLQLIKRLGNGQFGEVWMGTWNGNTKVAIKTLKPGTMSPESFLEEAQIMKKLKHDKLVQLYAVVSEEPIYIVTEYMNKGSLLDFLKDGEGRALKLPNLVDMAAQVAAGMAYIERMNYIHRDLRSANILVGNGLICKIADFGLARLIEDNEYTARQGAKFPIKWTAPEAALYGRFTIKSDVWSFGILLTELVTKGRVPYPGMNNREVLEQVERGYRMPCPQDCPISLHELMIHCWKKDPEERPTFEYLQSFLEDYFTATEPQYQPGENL

Hck = Hck (UniProt P08631); assay: as above
Sequence of Hck (P08631 whole entry, looked up): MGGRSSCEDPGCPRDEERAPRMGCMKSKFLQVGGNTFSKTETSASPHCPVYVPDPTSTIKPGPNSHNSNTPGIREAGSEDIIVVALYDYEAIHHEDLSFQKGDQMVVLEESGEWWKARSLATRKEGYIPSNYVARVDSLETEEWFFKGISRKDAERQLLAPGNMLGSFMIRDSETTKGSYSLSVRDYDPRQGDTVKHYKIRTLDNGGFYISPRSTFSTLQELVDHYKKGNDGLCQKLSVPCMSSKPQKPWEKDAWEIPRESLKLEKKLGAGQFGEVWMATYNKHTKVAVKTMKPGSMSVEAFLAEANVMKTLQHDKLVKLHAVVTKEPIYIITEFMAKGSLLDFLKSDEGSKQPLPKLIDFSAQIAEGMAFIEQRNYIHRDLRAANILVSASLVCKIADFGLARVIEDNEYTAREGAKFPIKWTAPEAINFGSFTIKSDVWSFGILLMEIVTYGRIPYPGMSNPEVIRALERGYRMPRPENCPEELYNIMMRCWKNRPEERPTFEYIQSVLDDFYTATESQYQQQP

Jak2 = Jak2 (UniProt O60674); assay: as above
Sequence of Jak2 (O60674 whole entry, looked up): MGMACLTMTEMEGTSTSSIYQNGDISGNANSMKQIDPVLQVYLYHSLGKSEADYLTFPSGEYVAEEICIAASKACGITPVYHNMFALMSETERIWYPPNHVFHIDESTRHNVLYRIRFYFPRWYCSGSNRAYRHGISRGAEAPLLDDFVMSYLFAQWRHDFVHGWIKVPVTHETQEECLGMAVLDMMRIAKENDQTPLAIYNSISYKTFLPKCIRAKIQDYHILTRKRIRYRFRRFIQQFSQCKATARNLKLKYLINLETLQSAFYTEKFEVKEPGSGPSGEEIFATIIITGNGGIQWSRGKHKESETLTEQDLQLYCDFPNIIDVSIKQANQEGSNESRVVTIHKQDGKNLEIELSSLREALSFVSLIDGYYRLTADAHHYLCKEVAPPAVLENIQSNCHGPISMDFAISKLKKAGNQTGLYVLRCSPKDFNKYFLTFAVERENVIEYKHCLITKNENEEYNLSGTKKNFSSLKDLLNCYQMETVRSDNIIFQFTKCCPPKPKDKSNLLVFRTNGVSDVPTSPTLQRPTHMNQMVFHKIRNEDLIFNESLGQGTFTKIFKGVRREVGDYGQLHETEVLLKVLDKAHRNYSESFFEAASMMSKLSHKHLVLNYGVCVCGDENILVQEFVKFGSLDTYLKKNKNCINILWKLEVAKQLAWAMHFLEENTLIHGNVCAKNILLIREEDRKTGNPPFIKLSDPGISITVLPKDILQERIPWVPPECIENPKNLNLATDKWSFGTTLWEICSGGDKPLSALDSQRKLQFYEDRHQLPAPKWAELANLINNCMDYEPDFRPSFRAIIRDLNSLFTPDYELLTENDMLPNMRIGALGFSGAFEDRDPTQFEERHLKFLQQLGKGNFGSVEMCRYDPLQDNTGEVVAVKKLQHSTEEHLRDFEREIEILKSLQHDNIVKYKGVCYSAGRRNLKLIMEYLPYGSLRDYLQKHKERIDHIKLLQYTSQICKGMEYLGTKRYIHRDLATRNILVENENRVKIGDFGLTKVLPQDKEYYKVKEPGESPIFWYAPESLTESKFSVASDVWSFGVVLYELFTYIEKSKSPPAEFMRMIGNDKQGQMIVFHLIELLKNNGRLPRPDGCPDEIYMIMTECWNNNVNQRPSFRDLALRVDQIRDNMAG

MERTK = MERTK (UniProt Q12866); assay: as above
Sequence of MERTK (Q12866 whole entry, looked up): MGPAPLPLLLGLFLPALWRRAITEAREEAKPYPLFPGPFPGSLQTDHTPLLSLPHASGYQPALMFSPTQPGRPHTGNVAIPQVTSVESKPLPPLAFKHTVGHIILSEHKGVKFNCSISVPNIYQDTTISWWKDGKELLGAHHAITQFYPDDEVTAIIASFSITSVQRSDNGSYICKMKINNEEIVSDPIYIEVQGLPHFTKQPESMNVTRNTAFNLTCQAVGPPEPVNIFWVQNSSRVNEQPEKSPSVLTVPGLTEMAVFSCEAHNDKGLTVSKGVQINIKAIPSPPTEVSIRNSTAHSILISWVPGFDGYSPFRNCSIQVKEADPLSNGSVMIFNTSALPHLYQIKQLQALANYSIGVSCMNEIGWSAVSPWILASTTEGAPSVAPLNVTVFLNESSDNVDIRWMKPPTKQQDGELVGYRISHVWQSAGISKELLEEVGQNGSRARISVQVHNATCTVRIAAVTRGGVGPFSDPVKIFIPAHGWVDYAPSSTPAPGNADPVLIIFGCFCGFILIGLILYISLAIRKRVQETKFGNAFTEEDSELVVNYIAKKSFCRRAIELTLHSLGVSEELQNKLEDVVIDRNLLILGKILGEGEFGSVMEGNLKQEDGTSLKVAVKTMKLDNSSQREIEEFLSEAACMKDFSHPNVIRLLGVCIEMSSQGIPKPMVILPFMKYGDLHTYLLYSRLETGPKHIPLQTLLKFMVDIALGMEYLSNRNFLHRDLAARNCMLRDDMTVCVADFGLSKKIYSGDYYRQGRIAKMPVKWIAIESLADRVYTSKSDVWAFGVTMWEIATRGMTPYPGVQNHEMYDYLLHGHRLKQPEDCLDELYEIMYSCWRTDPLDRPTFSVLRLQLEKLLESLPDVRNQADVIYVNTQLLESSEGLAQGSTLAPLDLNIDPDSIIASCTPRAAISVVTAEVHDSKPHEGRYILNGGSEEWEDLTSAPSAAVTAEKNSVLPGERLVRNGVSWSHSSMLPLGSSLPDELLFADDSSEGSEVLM

c-Abl (mouse) = assay: as above
c-Src = assay: as above
Grb2 SH2 = Grb2 SH2 (UniProt P62993); assay: SH2 binding enrichment of the phosphorylated peptide, bacterial display (enrichment ratio); higher = better substrate or ligand; peptides without Tyr show the background
SHP2-C SH2 = assay: as above
c-Src SH2 = assay: as above
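Throughout, for SH2 binding enrichment of the phosphorylated peptide, bacterial display: peptide library displayed on the E. coli surface as eCPX fusions, selected cells deep-sequenced, score is each peptide's frequency after selection divided by its frequency in the input.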
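Throughout, for phosphorylation enrichment, bacterial display: 11-residue human phosphosite peptides and single-mutation variants displayed on the E. coli surface, counted by deep sequencing, each peptide's frequency after selection divided by its frequency in the unselected input library; frequency after pTyr selection over input frequency; kinase dosed for 20-30% of maximal phosphorylation in three min.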

Row | SH2 binding enrichment (Grb2 SH2) | SH2 binding enrichment (SHP2-C SH2) | SH2 binding enrichment (c-Src SH2) | Sequence | phosphorylation enrichment (AncSZ) | phosphorylation enrichment (EPHB1) | phosphorylation enrichment (EPHB2) | phosphorylation enrichment (FGFR1) | phosphorylation enrichment (FGFR3) | phosphorylation enrichment (Fer (mouse)) | phosphorylation enrichment (Fes) | phosphorylation enrichment (Fyn) | phosphorylation enrichment (Hck) | phosphorylation enrichment (Jak2) | phosphorylation enrichment (MERTK) | phosphorylation enrichment (c-Abl (mouse)) | phosphorylation enrichment (c-Src)
1 | 1.06 | 1.11 | 0.664 | PEIIAYQPFGK [PRKCG_Y529_YF] | 1.03 | 0.635 | 0.645 | 0.777 | 0.796 | 0.672 | 1.1 | 0.688 | 0.798 | 0.976 | 0.653 | 0.672 | 1.07
2 | 0.885 | 1.72 | 1.8 | LVRPPYSYSAL [FOXI1_Y126] | 0.952 | 1.07 | 0.568 | 0.572 | 0.713 | 0.619 | 0.862 | 0.722 | 0.528 | 1.03 | 2.06 | 0.641 | 0.704
3 | 0.818 | 0.72 | 1.2 | GLCSYYETSKM [MAGED2_Y449_R446C] | 1.39 | 1.67 | 1.11 | 6.32 | 4.99 | 1.01 | 1.18 | 0.68 | 0.926 | 1.3 | 1.25 | 0.955 | 1.81
4 | 1.07 | 0.71 | 0.542 | SPYAVYLFFTF [RPGRIP1_Y826_R827L] | 0.928 | 0.47 | 0.487 | 0.446 | 0.87 | 0.628 | 1.08 | 0.617 | 0.569 | 0.783 | 0.533 | 0.797 | 0.748
5 | 6.93 | 5.86 | 2.4 | ASENVYVNIAH [CTSC_Y150] | 0.881 | 1.92 | 0.924 | 3.4 | 2.05 | 3.79 | 0.827 | 1.99 | 1.94 | 0.986 | 0.826 | 0.8 | 2.21
6 | 1.1 | 0.791 | 0.582 | RESYKYLPSSL [CXXC1_Y218_F219L] | 1.09 | 0.571 | 0.616 | 1.21 | 0.821 | 0.546 | 1.17 | 0.59 | 0.762 | 1.11 | 0.859 | 1.25 | 0.993
7 | 1.5 | 1.32 | 1.32 | GCKNRYDKGKP [THAP1_Y14_D17G] | 0.597 | 0.481 | 0.469 | 0.387 | 1.04 | 0.4 | 0.867 | 0.434 | 0.496 | 0.876 | 0.408 | 0.798 | 0.406
8 | 1.04 | 1.04 | 1.05 | QITQVYGFYHE [PPP2CA_Y127_D131H] | 0.938 | 0.66 | 0.877 | 0.614 | 0.753 | 0.872 | 1.07 | 10.1 | 7.96 | 1.21 | 3.47 | 0.67 | 8.14
9 | 1.1 | 0.704 | 1.03 | ETKKQYNSFTY [TMED3_Y85_D86N] | 0.617 | 0.436 | 0.434 | 0.496 | 0.455 | 0.434 | 0.753 | 0.592 | 0.423 | 0.54 | 0.463 | 0.435 | 0.491
10 | 0.817 | 0.7 | 0.515 | GLDGRYLLRDS [SH2D1A_Y29_S28R] | 0.651 | 0.423 | 0.448 | 0.531 | 0.488 | 0.637 | 0.734 | 0.372 | 0.395 | 0.51 | 0.41 | 0.441 | 0.436
11 | 0.875 | 0.636 | 0.704 | VVTGPYEKPSL [KIR3DS1_Y221_L220P] | 1.04 | 0.55 | 0.513 | 0.581 | 0.491 | 0.665 | 0.746 | 0.473 | 0.503 | 0.69 | 0.45 | 0.966 | 0.472
12 | 0.939 | 0.635 | 0.732 | TSYSGYRCHRH [NKAPL_Y94_Y96C] | 0.694 | 0.386 | 0.477 | 0.63 | 0.584 | 0.31 | 0.695 | 0.352 | 0.5 | 0.678 | 0.509 | 0.528 | 0.433
13 | 0.878 | 0.561 | 0.473 | REGAKYVSHSA [ASS1_Y113_G117S] | 0.764 | 0.414 | 0.468 | 0.473 | 0.854 | 0.504 | 0.785 | 0.454 | 0.457 | 0.691 | 0.593 | 0.818 | 0.667
14 | 0.854 | 0.622 | 0.358 | FGSSSSGGAGG [RPA2_Y14_Y14S_YF] | 0.499 | 0.287 | 0.31 | 0.409 | 0.455 | 0.417 | 0.638 | 0.419 | 0.312 | 0.669 | 0.394 | 0.511 | 0.458
15 | 0.743 | 0.738 | 0.363 | QKMFDYLKEKK [RYR2_Y3780_L3778F] | 0.797 | 0.558 | 0.438 | 0.459 | 0.595 | 0.574 | 0.958 | 0.445 | 0.471 | 0.805 | 0.403 | 0.763 | 0.471
16 | 0.854 | 0.478 | 0.581 | RSAGKDDVYLI [MECP2_Y120_Y120D] | 0.755 | 0.551 | 0.603 | 0.513 | 0.594 | 0.521 | 0.862 | 1.14 | 0.616 | 0.658 | 0.399 | 0.486 | 1.25
17 | 1.04 | 1.08 | 1.66 | SCRENYSYSEE [LEMD3_Y258_D260Y] | 1.18 | 0.66 | 0.604 | 0.561 | 0.76 | 0.48 | 1.22 | 0.512 | 0.548 | 0.892 | 0.428 | 0.652 | 0.47
18 | 0.705 | 0.706 | 0.612 | ASTDFNKRGDF [PDHA1_Y243_Y243N_YF] | 0.511 | 0.297 | 0.341 | 0.373 | 0.378 | 0.347 | 0.585 | 0.365 | 0.462 | 0.53 | 0.418 | 0.521 | 0.44
19 | 0.771 | 0.426 | 0.711 | FEDTLYTVLHR [UNC13D_Y61_A59T_YF] | 2.45 | 9.72 | 4.95 | 1.18 | 1.5 | 5.83 | 1.38 | 5.65 | 7.58 | 1.56 | 7.86 | 1.99 | 6.22
20 | 0.668 | 1.27 | 0.749 | RVFRDYVLKSA [HTATIP2_Y111_D108Y_YF] | 0.889 | 0.648 | 0.533 | 0.79 | 0.605 | 0.527 | 1.15 | 0.572 | 0.591 | 1.05 | 0.548 | 0.999 | 0.45
21 | 0.851 | 0.835 | 0.743 | CTTIHYNFMSN [TP53_Y234_C238S_YF] | 1.12 | 0.621 | 0.58 | 0.561 | 0.745 | 0.562 | 1.24 | 0.437 | 0.545 | 1.07 | 0.527 | 0.833 | 0.483
22 | 0.977 | 1.05 | 10.4 | TRSYDYMEGED [FGF7_Y58_G62E] | 1.41 | 0.711 | 0.634 | 5.52 | 0.869 | 0.645 | 1.47 | 0.607 | 0.549 | 1.51 | 0.591 | 0.919 | 0.574
23 | 0.865 | 0.354 | 0.497 | RNAAEYPLSSG [ABL1_Y139_L140P] | 0.426 | 0.337 | 0.345 | 0.445 | 0.485 | 0.402 | 0.898 | 0.401 | 0.596 | 0.41 | 0.453 | 0.647 | 0.522
24 | 0.924 | 0.914 | 0.988 | CTTIHSNFMCN [TP53_Y234_Y234S_YF] | 0.695 | 0.448 | 0.555 | 0.508 | 0.55 | 0.429 | 0.832 | 0.416 | 0.43 | 0.729 | 0.405 | 0.507 | 0.454
25 | 0.761 | 0.574 | 0.404 | SGFESYGSSSF [RPA2_Y9_YF] | 0.591 | 0.433 | 0.432 | 0.443 | 0.539 | 0.389 | 0.601 | 0.448 | 0.481 | 0.436 | 0.348 | 0.436 | 0.368
26 | 0.98 | 0.767 | 0.698 | TKQLTYEEQFL [PIK3C3_Y310_D314Y_YF] | 1.1 | 0.611 | 0.622 | 0.497 | 0.65 | 1.03 | 1.08 | 0.509 | 0.419 | 0.861 | 0.502 | 0.661 | 0.5
27 | 1.01 | 0.848 | 0.627 | YFRDGYMPRQY [GSS_Y270] | 0.615 | 0.429 | 0.491 | 3.74 | 2.73 | 0.531 | 0.74 | 0.479 | 0.402 | 0.928 | 0.418 | 0.496 | 0.509

Row | Sequence | SH2 binding enrichment (Grb2 SH2) | SH2 binding enrichment (SHP2-C SH2) | SH2 binding enrichment (c-Src SH2) | phosphorylation enrichment (AncSZ) | phosphorylation enrichment (EPHB1) | phosphorylation enrichment (EPHB2) | phosphorylation enrichment (FGFR1) | phosphorylation enrichment (FGFR3) | phosphorylation enrichment (Fer (mouse)) | phosphorylation enrichment (Fes) | phosphorylation enrichment (Fyn) | phosphorylation enrichment (Hck) | phosphorylation enrichment (Jak2) | phosphorylation enrichment (MERTK) | phosphorylation enrichment (c-Abl (mouse)) | phosphorylation enrichment (c-Src)
28 | DRLAVYIDRVR [LMNA_Y45] | 1.07 | 0.861 | 0.682 | 1.24 | 0.542 | 0.554 | 0.418 | 0.745 | 0.488 | 1.11 | 0.476 | 0.434 | 0.892 | 0.41 | 0.61 | 0.359
29 | TLMNAYSSRSH [KIF11_Y231] | 0.707 | 0.552 | 0.427 | 0.675 | 0.436 | 0.517 | 0.449 | 0.44 | 0.514 | 0.579 | 0.517 | 0.516 | 1.08 | 0.636 | 0.57 | 0.54
